Laboratory results as given in the supplement of paper PMC10724198.
± gives the standard deviation of the averaged measurements.

Legend:
Saccharomyces cerevisiae [1] = experiment: protein stability index of tFT-peptide fusion (C-terminal peptide) (PSI (0-1 scale)); higher = more stable (slower turnover); conditions: genetic background: wild type; temperature: 30 C
Saccharomyces cerevisiae [2] = experiment: as above
Experimental: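 MPS profiling in S. cerevisiae of the tFT-X12 degron library: putative degron peptides plus stable controls, 12 aa, fused to the C-terminus of a sfGFP-mCherry timer. Cells are FACS-sorted into 8 mCherry/sfGFP bins and deep-sequenced. PSI runs from 0 (unstable) to 1 (stable). Backgrounds are wild type, das1Δ and doa10Δ at 30 °C, and wild type, das1Δ, cdc34-1 and cdc53-1 at 37 °C; 2-3 technical replicates each.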

[3] = genetic background: cdc34-1, temperature: 37 C
[4] = genetic background: cdc53-1, temperature: 37 C
[5] = genetic background: das1 deletion, temperature: 30 C
[6] = genetic background: das1 deletion, temperature: 37 C
[7] = genetic background: doa10 deletion, temperature: 30 C
[8] = genetic background: wild type, temperature: 30 C
[9] = genetic background: wild type, temperature: 37 C
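Note: PSI is a weighted mean of sequencing reads over stability bins, variants kept only with over 10 reads, mCherry proximal and sfGFP distal, peptide attached via GGGS linker.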

| Sequence | protein stability index (Saccharomyces cerevisiae [1]) | protein stability index (Saccharomyces cerevisiae [2]; [3]) | protein stability index (Saccharomyces cerevisiae [2]; [4]) | protein stability index (Saccharomyces cerevisiae [2]; [5]) | protein stability index (Saccharomyces cerevisiae [2]; [6]) | protein stability index (Saccharomyces cerevisiae [2]; [7]) | protein stability index (Saccharomyces cerevisiae [2]; [8]) | protein stability index (Saccharomyces cerevisiae [2]; [9]) |
| --- | --- | --- | --- | --- | --- | --- | --- | --- |
| GSLFANYNLKLF | 0.163 ± 0.025 | 0.62289 ± 0.00034 | 0.724 ± 0.017 | 0.648 ± 0.06 | 0.771 ± 0.033 | 0.108 ± 0.017 | 0.106 ± 0.028 | 0.211 ± 0.013 |
| GSVHLTKERHLV | 0.319 ± 0.016 | 0.66 ± 0.028 | 0.74 ± 0.03 | 0.648 ± 0.032 | 0.7436 ± 0.0024 | 0.207 ± 0.0061 | 0.241 ± 0.036 | 0.499 ± 0.0063 |
| GVAILFTFFRLL | 0.159 ± 0.022 | 0.228 ± 0.086 | 0.526 ± 0.0023 | 0.456 ± 0.025 | 0.612 ± 0.02 | 0.0564 ± 0.016 | 0.0756 ± 0.0073 | 0.0737 ± 0.012 |
| GVGHAWHYFCVC | 0.357 ± 0.025 | 0.614 ± 0.044 | 0.7347 ± 0.0032 | 0.608 ± 0.018 | 0.74764 ± 0.00017 | 0.197 ± 0.017 | 0.247 ± 0.021 | 0.431 ± 0.0045 |
| GVLIFLSFQPIA | 0.431 ± 0.037 | 0.539 ± 0.021 | 0.617 ± 0.023 | 0.429 ± 0.03 | 0.599 ± 0.0088 | 0.3783 ± 0.0017 | 0.414 ± 0.013 | 0.556 ± 0.0093 |
| GVLRMAPGRVMC | 0.268 ± 0.032 | 0.599 ± 0.031 | 0.704 ± 0.0083 | 0.598 ± 0.024 | 0.702 ± 0.016 | 0.159 ± 0.02 | 0.175 ± 0.0027 | 0.345 ± 0.04 |
| GVQFSVKWVKLG | 0.225 ± 0.019 | 0.519 ± 0.022 | 0.7 ± 0.0093 | 0.616 ± 0.014 | 0.734 ± 0.0015 | 0.106 ± 0.011 | 0.109 ± 0.025 | 0.18 ± 0.0065 |
| GVSLQLHVAVLI | 0.44 ± 0.047 | 0.72 ± 0.39 |  | 0.483 ± 0.053 | 0.542 ± 0.056 | 0.275 ± 0.036 | 0.278 ± 0.0093 | 0.4284 ± 0.0018 |
| GVSLRVFVVSVC | 0.212 ± 0.053 | 0.137 ± 0.02 | 0.162 ± 0.015 | 0.219 ± 0.02 | 0.316 ± 0.0044 | 0.108 ± 0.005 | 0.122 ± 0.018 | 0.142 ± 0.0047 |
| GVVWPLGWVWVE | 0.527 ± 0.05 | 0.699 ± 0.016 | 0.7315 ± 0.0022 | 0.614 ± 0.012 | 0.7383 ± 0.0066 | 0.368 ± 0.014 | 0.421 ± 0.025 | 0.615 ± 0.0074 |
| GWRFCVFIYVHR | 0.179 ± 0.042 | 0.0703 ± 0.011 | 0.0688 ± 0.0038 | 0.115 ± 0.033 | 0.196 ± 0.012 | 0.213 ± 0.018 | 0.107 ± 0.015 | 0.186 ± 0.0085 |
| GWVVVVCGVCCG | 0.285 ± 0.011 | 0.178 ± 0.0072 | 0.22 ± 0.033 | 0.208 ± 0.026 | 0.307 ± 0.016 | 0.167 ± 0.0077 | 0.196 ± 0.024 | 0.28 ± 0.012 |
| GYSMPVSFFFAL | 0.356 ± 0.0092 | 0.669 ± 0.057 | 0.779 ± 0.012 | 0.616 ± 0.017 | 0.745 ± 0.0082 | 0.201 ± 0.011 | 0.24 ± 0.017 | 0.453 ± 0.014 |
| HFASPPAPRSNL | 0.765 ± 0.0023 | 0.799 ± 0.051 | 0.819 ± 0.023 | 0.762 ± 0.03 | 0.81 ± 0.016 | 0.785 ± 0.032 | 0.785 ± 0.032 | 0.792 ± 0.014 |
| HFLLAFMLCFGQ | 0.466 ± 0.044 | 0.4512 ± 0.0045 | 0.476 ± 0.0097 | 0.359 ± 0.039 | 0.504 ± 0.0076 | 0.336 ± 0.011 | 0.356 ± 0.021 | 0.476 ± 0.024 |
| HLILWLFFVIVF | 0.304 ± 0.23 | 0.237 ± 0.012 | 0.193 ± 0.047 | 0.216 ± 0.024 | 0.333 ± 0.0038 | 0.237 ± 0.012 | 0.186 ± 0.012 | 0.271 ± 0.0074 |
| HLRWYITGIVWF | 0.4216 ± 0.00048 | 0.4885 ± 0.0024 |  | 0.413 ± 0.11 | 0.671 ± 0.17 | 0.311 ± 0.019 | 0.359 ± 0.087 | 0.543 ± 0.017 |
| HPRPRPPPLPPP | 0.508 ± 0.032 | 0.4633 ± 0.00058 | 0.546 ± 0.019 | 0.504 ± 0.006 | 0.523 ± 0.021 | 0.544 ± 0.0083 | 0.487 ± 0.03 | 0.4943 ± 0.0044 |
| HRARILLIRICP | 0.415 ± 0.017 | 0.486 ± 0.024 | 0.517 ± 0.011 | 0.411 ± 0.024 | 0.64 ± 0.019 | 0.5034 ± 0.0046 | 0.42 ± 0.032 | 0.585 ± 0.029 |
| HRFCAPSLSASD | 0.697 ± 0.062 | 0.675 ± 0.007 | 0.722 ± 0.013 | 0.6628 ± 0.0047 | 0.7288 ± 0.0054 | 0.665 ± 0.024 | 0.666 ± 0.012 | 0.696 ± 0.0086 |

| Sequence | protein stability index (Saccharomyces cerevisiae [1]) | protein stability index (Saccharomyces cerevisiae [2]; [3]) | protein stability index (Saccharomyces cerevisiae [2]; [4]) | protein stability index (Saccharomyces cerevisiae [2]; [5]) | protein stability index (Saccharomyces cerevisiae [2]; [6]) | protein stability index (Saccharomyces cerevisiae [2]; [7]) | protein stability index (Saccharomyces cerevisiae [2]; [8]) | protein stability index (Saccharomyces cerevisiae [2]; [9]) |
| --- | --- | --- | --- | --- | --- | --- | --- | --- |
| HVLALIFLYIPD | 0.4163 ± 0.0012 | 0.43 ± 0.045 | 0.55 ± 0.032 | 0.33 ± 0.037 | 0.5422 ± 0.0044 | 0.317 ± 0.021 | 0.355 ± 0.019 | 0.501 ± 0.0067 |
| HWVRLSSLAFVS | 0.176 ± 0.01 | 0.2245 ± 0.0018 | 0.289 ± 0.011 | 0.289 ± 0.036 | 0.233 ± 0.0082 | 0.202 ± 0.022 | 0.183 ± 0.014 | 0.1895 ± 0.00075 |
| IACISCLLCVVV | 0.508 ± 0.015 | 0.608 ± 0.042 | 0.649 ± 0.038 | 0.479 ± 0.025 | 0.607 ± 0.017 | 0.479 ± 0.022 | 0.504 ± 0.0075 | 0.589 ± 0.0073 |
| IEVACLLTAFCD | 0.251 ± 0.027 | 0.22 ± 0.026 | 0.262 ± 0.0062 | 0.257 ± 0.028 | 0.225 ± 0.0027 | 0.282 ± 0.043 | 0.266 ± 0.033 | 0.209 ± 0.0052 |
| IFCRCNSTVLLI | 0.451 ± 0.024 | 0.547 ± 0.035 | 0.633 ± 0.013 | 0.483 ± 0.021 | 0.5959 ± 0.0016 | 0.365 ± 0.055 | 0.37 ± 0.018 | 0.522 ± 0.021 |
| IFFYQLYVDRLC | 0.151 ± 0.059 | 0.227 ± 0.05 | 0.292 ± 0.0067 | 0.229 ± 0.035 | 0.412 ± 0.011 | 0.0857 ± 0.012 | 0.0803 ± 0.01 | 0.0746 ± 0.0054 |
| IFSGCRIALSVF | 0.181 ± 0.0085 | 0.0412 ± 0.013 | 0.052 ± 0.021 | 0.188 ± 0.018 | 0.165 ± 0.012 | 0.104 ± 0.0034 | 0.116 ± 0.01 | 0.0944 ± 0.039 |
| IFSTQMVRFSLL | 0.362 ± 0.019 | 0.629 ± 0.052 | 0.7324 ± 0.0061 | 0.662 ± 0.0074 | 0.7692 ± 0.0033 | 0.261 ± 0.0058 | 0.272 ± 0.017 | 0.422 ± 0.018 |
| IFVFVSFPSCVL | 0.468 ± 0.012 | 0.603 ± 0.062 | 0.644 ± 0.022 | 0.56 ± 0.041 | 0.627 ± 0.0096 | 0.35 ± 0.0042 | 0.399 ± 0.026 | 0.568 ± 0.03 |
| ILFWSLLVSTIR | 0.177 ± 0.082 | 0.13 ± 0.031 | 0.223 ± 0.056 | 0.174 ± 0.034 | 0.263 ± 0.0027 | 0.137 ± 0.017 | 0.149 ± 0.035 | 0.266 ± 0.004 |
| ILRAGITYVYAV | 0.399 ± 0.04 | 0.515 ± 0.014 | 0.544 ± 0.036 | 0.325 ± 0.038 | 0.5463 ± 0.0033 | 0.264 ± 0.0082 | 0.296 ± 0.016 | 0.493 ± 0.013 |
| ILVFHFWPFLVR | 0.426 ± 0.04 | 0.411 ± 0.046 | 0.435 ± 0.015 | 0.351 ± 0.018 | 0.523 ± 0.018 | 0.418 ± 0.027 | 0.35 ± 0.017 | 0.503 ± 0.017 |
| IPGGRPLLVEVR | 0.426 ± 0.035 | 0.339 ± 0.02 | 0.384 ± 0.018 | 0.254 ± 0.044 | 0.518 ± 0.074 | 0.216 ± 0.0041 | 0.264 ± 0.033 | 0.439 ± 0.015 |
| IRHALHFRVVAV | 0.48 ± 0.0076 | 0.505 ± 0.035 | 0.545 ± 0.016 | 0.432 ± 0.015 | 0.568 ± 0.0082 | 0.3943 ± 0.0036 | 0.419 ± 0.013 | 0.5286 ± 0.0022 |
| IRWCLVSVFYVV | 0.192 ± 0.038 | 0.214 ± 0.028 | 0.364 ± 0.033 | 0.245 ± 0.033 | 0.444 ± 0.01 | 0.0753 ± 0.012 | 0.0978 ± 0.02 | 0.13554 ± 0.00011 |
| ISAVLFFLYLSF | 0.308 ± 0.025 | 0.163 ± 0.008 | 0.108 ± 0.019 | 0.24 ± 0.018 | 0.326 ± 0.0042 | 0.459 ± 0.035 | 0.246 ± 0.017 | 0.272 ± 0.009 |
| IVVSSRFLGFFC | 0.2 ± 0.0025 | 0.53 ± 0.073 | 0.701 ± 0.07 | 0.62 ± 0.032 | 0.742 ± 0.0077 | 0.0947 ± 0.012 | 0.102 ± 0.012 | 0.18 ± 0.0083 |
| IWRGGSAVPMIC | 0.267 ± 0.058 | 0.627 ± 0.075 | 0.686 ± 0.022 | 0.572 ± 0.025 | 0.721 ± 0.013 | 0.167 ± 0.0098 | 0.195 ± 0.023 | 0.351 ± 0.02 |
| IYTLIINKSKAQ | 0.429 ± 0.041 | 0.686 ± 0.024 | 0.685 ± 0.011 | 0.626 ± 0.046 | 0.696 ± 0.072 | 0.282 ± 0.024 | 0.362 ± 0.11 | 0.524 ± 0.017 |
